Reference: CN115521379A (NANJING JISHENG AOMA BIOLOGICAL PHARMACEUTICAL CO LTD, dated 2022)
Where a chain is given by its changes, count along the chain named. Names may count otherwise.

B1: hu19D4-25 (antibody, V domains shown)
VH: EVQLQESGPGLVKPSETLSLTCTVSGFSLTSYAISWIRQPPGKGLEWIGVIWTGGGTNYNSALKSRVTISKDTSKNQVSLKLSSVTAADTAVYYCARDHYGTSPFVYWGQGTLVTVSS
VL: DIVLTQTPLSLSVTPGQPASISCRASESVDNYGISFMNWFLQKPGQPPQLLIYAASNQGSGVPDRFSGSGSGTDFTLKISRVEAEDVGVYFCQQSKEVPWTFGGGTKVEIK
notes: also called 人源化抗体hu19D4-25
B2: WT-Agly-YTE (antibody, V domains shown)
VH: B1 VH
VL: B1 VL
notes: also called WT-Ag-YTE; WT-AGY-YTE
B3: 1C2-Agly-YTE (antibody, V domains shown)
VH: B1 VH
VL: B1 VL with K96L
notes: also called 19D4-25-1C2与YTE突变、N297突变的Fc融合后得到的抗原结合蛋白
B4: 1C2-3C11-W52F-Agly-YTE (antibody, V domains shown)
VH: B1 VH with W52F, D98E
VL: B1 VL with K96L
notes: 19D4-25-1C2-3C11 with W52F and an Fc with YTE (M252Y, S254T, T256E) and N297A; The label itself is not defined in the text
B5: 1C2-Agly (antibody, V domains shown)
VH: B1 VH
VL: B1 VL with K96L
notes: also called 19D4-25-1C2与N297突变的Fc融合后得到的抗原结合蛋白
B6: 3C11-Agly-YTE (antibody, V domains shown)
VH: B1 VH with D98E
VL: B1 VL
notes: also called 19D4-25-3C11与YTE突变、N297突变的Fc融合后得到的抗原结合蛋白
B7: 1C2-3C11-Agly-YTE (antibody, V domains shown)
VH: B1 VH with D98E
VL: B1 VL with K96L
notes: also called 19D4-25-1C2-3C11与YTE突变、N297突变的Fc融合后得到的抗原结合蛋白

Legend:
PD-1蛋白 [1] = target: T1, PD-1蛋白 (human, UniProt Q15116 25-167, limits assumed); test: binding ELISA on coated PD-1 protein
T1 construct: Recombinant PD-1 protein used in ELISA, SPR and BLI; also called PD-1[B]; (biotinylated)
T1 sequence (Q15116 25-167 limits assumed): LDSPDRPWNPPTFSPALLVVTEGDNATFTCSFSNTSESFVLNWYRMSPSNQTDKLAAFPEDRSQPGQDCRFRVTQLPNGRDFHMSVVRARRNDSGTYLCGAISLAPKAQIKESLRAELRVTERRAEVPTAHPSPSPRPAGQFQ

PD-1蛋白 [2] = target: T1, PD-1蛋白; test: SPR (Biacore T200), antibody captured by anti-human Fc, PD-1 injected
PD-1蛋白 [3] = target: T1, PD-1蛋白; test: competition ELISA: PD-L1 coated, biotinylated PD-1 0.5 ug/mL, antibody titrated

Binder | IC50 (PD-1蛋白 [3]) | also measured
B1 | – | EC50 (PD-1蛋白 [1]): 0.192 nM; Kd (PD-1蛋白 [2]): 89.5 nM; koff (PD-1蛋白 [2]): 0.0105 s⁻¹; kon (PD-1蛋白 [2]): 118000 M⁻¹ s⁻¹
B2 | 0.411 µg/mL | –
B3 | 0.492 µg/mL | –
B4 | 0.495 µg/mL | –
B5 | 0.375 µg/mL | –
B6 | 0.543 µg/mL | –
B7 | 0.369 µg/mL | –
